# Test system: Ac transposase (Zea mays)
# Assay: cell_activity
# Details: Ds excision from test plasmid in wheat immature embryos; 0 without transposase plasmid
substance,measurement,value
Ds-Ubi-bar element (254 bp Ds 5' and 320 bp Ds 3' ends),activity (blue spots per embryo),61

# Reference: patent publication US6951972
